In patent publication US20240209076A1 (KODIAK SCIENCES, published 2024):

biological target: T1, human IL-6 (human, UniProt P05231 30-212); experiment: SPR Biacore, supernatant Ab on Protein A chip, 37 C
T1 construct: IL-6 flowed over captured antibodies
Description: Antibodies were captured on a Protein A chip (GE) by injecting 1:20 cell supernatant dilutions at 10 μL/min for 60 seconds. […] The sensor chip was regenerated by a 60 seconds injection of 10 mM Glycine pH 1.7 at the flow rate of 50 μL/min. […] For this setup, 1 μg/mL of purified antibody was injected over a Protein A chip at 10 μL/min for 25 seconds. […] The sensor chip was regenerated by a 60 seconds injection of 10 mM Glycine pH 1.7 at flow rate of 50 μL/min. Data analysis for supernatant and purified samples were performed using BIAevaluation software (GE). All sensorgrams were double reference subtracted and fit using a 1:1 Langmuir binding model.

T1 sequence (P05231 30-212 limits assumed): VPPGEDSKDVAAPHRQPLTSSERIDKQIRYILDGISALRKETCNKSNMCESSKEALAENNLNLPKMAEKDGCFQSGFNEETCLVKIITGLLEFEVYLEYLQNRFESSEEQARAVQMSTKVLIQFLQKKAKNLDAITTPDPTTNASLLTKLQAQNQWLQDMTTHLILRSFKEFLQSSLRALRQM

Row | Binder | Kd [nM] | koff [s⁻¹] | kon [M⁻¹ s⁻¹]
1 | anti-IL-6 antibody, heavy chain S35L, G66D / light chain M32L, M50D, N52S, M88Q (antibody, IgG1, V domains shown, Full IgG1 (Expi293); VL = variant III) VH: EVQLVESGGGLVQPGGSLRLSCAASGFTFSPFAMLWVRQAPGKGLEWVAKISPGGSWTYYSDTVTDRFTFSLDTSKSTAYLQMNSLRAEDTAVYYCARQLWGYYALDIWGQGTLVTVSS VL: DIQLTQSPSSLSASVGDRVTITCSASISVSYLYWYQQKPGKAPKLLIYDDSSLASGVPSRFSGSGSGTDFTLTISSLQPEDFATYYCQQWSGYPYTFGQGTKVEIK | 2.59 | 0.00243 | 942000
2 | anti-IL-6 antibody, heavy chain S35T, G66D / light chain M32L, M50D, N52S, M88Q (antibody, IgG1, V domains shown, Full IgG1 (Expi293); VL = variant III) VH: EVQLVESGGGLVQPGGSLRLSCAASGFTFSPFAMTWVRQAPGKGLEWVAKISPGGSWTYYSDTVTDRFTFSLDTSKSTAYLQMNSLRAEDTAVYYCARQLWGYYALDIWGQGTLVTVSS VL: DIQLTQSPSSLSASVGDRVTITCSASISVSYLYWYQQKPGKAPKLLIYDDSSLASGVPSRFSGSGSGTDFTLTISSLQPEDFATYYCQQWSGYPYTFGQGTKVEIK | 0.498 | 0.000711 | 1.43e+06
3 | anti-IL-6 antibody, heavy chain T63F, G66D / light chain M32L, M50D, N52S, M88Q (antibody, IgG1, V domains shown, Full IgG1 (Expi293); VL = variant III) VH: EVQLVESGGGLVQPGGSLRLSCAASGFTFSPFAMSWVRQAPGKGLEWVAKISPGGSWTYYSDFVTDRFTFSLDTSKSTAYLQMNSLRAEDTAVYYCARQLWGYYALDIWGQGTLVTVSS VL: DIQLTQSPSSLSASVGDRVTITCSASISVSYLYWYQQKPGKAPKLLIYDDSSLASGVPSRFSGSGSGTDFTLTISSLQPEDFATYYCQQWSGYPYTFGQGTKVEIK | 0.274 | 0.000459 | 1.67e+06
4 | anti-IL-6 antibody, heavy chain T63R, G66D / light chain M32L, M50D, N52S, M88Q (antibody, IgG1, V domains shown, Full IgG1 (Expi293); VL = variant III) VH: EVQLVESGGGLVQPGGSLRLSCAASGFTFSPFAMSWVRQAPGKGLEWVAKISPGGSWTYYSDRVTDRFTFSLDTSKSTAYLQMNSLRAEDTAVYYCARQLWGYYALDIWGQGTLVTVSS VL: DIQLTQSPSSLSASVGDRVTITCSASISVSYLYWYQQKPGKAPKLLIYDDSSLASGVPSRFSGSGSGTDFTLTISSLQPEDFATYYCQQWSGYPYTFGQGTKVEIK | 0.273 | 0.000526 | 1.92e+06
5 | anti-IL-6 antibody, heavy chain T63P, G66D / light chain M32L, M50D, N52S, M88Q (antibody, IgG1, V domains shown, Full IgG1 (Expi293); VL = variant III) VH: EVQLVESGGGLVQPGGSLRLSCAASGFTFSPFAMSWVRQAPGKGLEWVAKISPGGSWTYYSDPVTDRFTFSLDTSKSTAYLQMNSLRAEDTAVYYCARQLWGYYALDIWGQGTLVTVSS VL: DIQLTQSPSSLSASVGDRVTITCSASISVSYLYWYQQKPGKAPKLLIYDDSSLASGVPSRFSGSGSGTDFTLTISSLQPEDFATYYCQQWSGYPYTFGQGTKVEIK | 0.246 | 0.000419 | 1.7e+06
6 | anti-IL-6 antibody, heavy chain S35V, G66D / light chain M32L, M50D, N52S, M88Q (antibody, IgG1, V domains shown, Full IgG1 (Expi293); VL = variant III) VH: EVQLVESGGGLVQPGGSLRLSCAASGFTFSPFAMVWVRQAPGKGLEWVAKISPGGSWTYYSDTVTDRFTFSLDTSKSTAYLQMNSLRAEDTAVYYCARQLWGYYALDIWGQGTLVTVSS VL: DIQLTQSPSSLSASVGDRVTITCSASISVSYLYWYQQKPGKAPKLLIYDDSSLASGVPSRFSGSGSGTDFTLTISSLQPEDFATYYCQQWSGYPYTFGQGTKVEIK | 1.33 | 0.00137 | 1.03e+06
7 | anti-IL-6 antibody, heavy chain T63S, G66D / light chain M32L, M50D, N52S, M88Q (antibody, IgG1, V domains shown, Full IgG1 (Expi293); VL = variant III) VH: EVQLVESGGGLVQPGGSLRLSCAASGFTFSPFAMSWVRQAPGKGLEWVAKISPGGSWTYYSDSVTDRFTFSLDTSKSTAYLQMNSLRAEDTAVYYCARQLWGYYALDIWGQGTLVTVSS VL: DIQLTQSPSSLSASVGDRVTITCSASISVSYLYWYQQKPGKAPKLLIYDDSSLASGVPSRFSGSGSGTDFTLTISSLQPEDFATYYCQQWSGYPYTFGQGTKVEIK | 0.278 | 0.000499 | 1.8e+06
8 | anti-IL-6 antibody, heavy chain T63A, G66D / light chain M32L, M50D, N52S, M88Q (antibody, IgG1, V domains shown, Full IgG1 (Expi293); VL = variant III) VH: EVQLVESGGGLVQPGGSLRLSCAASGFTFSPFAMSWVRQAPGKGLEWVAKISPGGSWTYYSDAVTDRFTFSLDTSKSTAYLQMNSLRAEDTAVYYCARQLWGYYALDIWGQGTLVTVSS VL: DIQLTQSPSSLSASVGDRVTITCSASISVSYLYWYQQKPGKAPKLLIYDDSSLASGVPSRFSGSGSGTDFTLTISSLQPEDFATYYCQQWSGYPYTFGQGTKVEIK | 0.268 | 0.000458 | 1.7e+06
9 | anti-IL-6 antibody, heavy chain T63I, G66D / light chain M32L, M50D, N52S, M88Q (antibody, IgG1, V domains shown, Full IgG1 (Expi293); VL = variant III) VH: EVQLVESGGGLVQPGGSLRLSCAASGFTFSPFAMSWVRQAPGKGLEWVAKISPGGSWTYYSDIVTDRFTFSLDTSKSTAYLQMNSLRAEDTAVYYCARQLWGYYALDIWGQGTLVTVSS VL: DIQLTQSPSSLSASVGDRVTITCSASISVSYLYWYQQKPGKAPKLLIYDDSSLASGVPSRFSGSGSGTDFTLTISSLQPEDFATYYCQQWSGYPYTFGQGTKVEIK | 0.288 | 0.000446 | 1.55e+06
10 | anti-IL-6 antibody, heavy chain T63L, G66D / light chain M32L, M50D, N52S, M88Q (antibody, IgG1, V domains shown, Full IgG1 (Expi293); VL = variant III) VH: EVQLVESGGGLVQPGGSLRLSCAASGFTFSPFAMSWVRQAPGKGLEWVAKISPGGSWTYYSDLVTDRFTFSLDTSKSTAYLQMNSLRAEDTAVYYCARQLWGYYALDIWGQGTLVTVSS VL: DIQLTQSPSSLSASVGDRVTITCSASISVSYLYWYQQKPGKAPKLLIYDDSSLASGVPSRFSGSGSGTDFTLTISSLQPEDFATYYCQQWSGYPYTFGQGTKVEIK | 0.283 | 0.000454 | 1.6e+06
11 | anti-IL-6 antibody, heavy chain T63H, G66D / light chain M32L, M50D, N52S, M88Q (antibody, IgG1, V domains shown, Full IgG1 (Expi293); VL = variant III) VH: EVQLVESGGGLVQPGGSLRLSCAASGFTFSPFAMSWVRQAPGKGLEWVAKISPGGSWTYYSDHVTDRFTFSLDTSKSTAYLQMNSLRAEDTAVYYCARQLWGYYALDIWGQGTLVTVSS VL: DIQLTQSPSSLSASVGDRVTITCSASISVSYLYWYQQKPGKAPKLLIYDDSSLASGVPSRFSGSGSGTDFTLTISSLQPEDFATYYCQQWSGYPYTFGQGTKVEIK | 0.28 | 0.000481 | 1.72e+06
12 | anti-IL-6 antibody, heavy chain T63V, G66D / light chain M32L, M50D, N52S, M88Q (antibody, IgG1, V domains shown, Full IgG1 (Expi293); VL = variant III) VH: EVQLVESGGGLVQPGGSLRLSCAASGFTFSPFAMSWVRQAPGKGLEWVAKISPGGSWTYYSDVVTDRFTFSLDTSKSTAYLQMNSLRAEDTAVYYCARQLWGYYALDIWGQGTLVTVSS VL: DIQLTQSPSSLSASVGDRVTITCSASISVSYLYWYQQKPGKAPKLLIYDDSSLASGVPSRFSGSGSGTDFTLTISSLQPEDFATYYCQQWSGYPYTFGQGTKVEIK | 0.274 | 0.00043 | 1.57e+06
13 | anti-IL-6 antibody, heavy chain T63D, G66D / light chain M32L, M50D, N52S, M88Q (antibody, IgG1, V domains shown, Full IgG1 (Expi293); VL = variant III) VH: EVQLVESGGGLVQPGGSLRLSCAASGFTFSPFAMSWVRQAPGKGLEWVAKISPGGSWTYYSDDVTDRFTFSLDTSKSTAYLQMNSLRAEDTAVYYCARQLWGYYALDIWGQGTLVTVSS VL: DIQLTQSPSSLSASVGDRVTITCSASISVSYLYWYQQKPGKAPKLLIYDDSSLASGVPSRFSGSGSGTDFTLTISSLQPEDFATYYCQQWSGYPYTFGQGTKVEIK | 0.249 | 0.000413 | 1.66e+06
14 | anti-IL-6 antibody, heavy chain S35W, G66D / light chain M32L, M50D, N52S, M88Q (antibody, IgG1, V domains shown, Full IgG1 (Expi293); VL = variant III) VH: EVQLVESGGGLVQPGGSLRLSCAASGFTFSPFAMWWVRQAPGKGLEWVAKISPGGSWTYYSDTVTDRFTFSLDTSKSTAYLQMNSLRAEDTAVYYCARQLWGYYALDIWGQGTLVTVSS VL: DIQLTQSPSSLSASVGDRVTITCSASISVSYLYWYQQKPGKAPKLLIYDDSSLASGVPSRFSGSGSGTDFTLTISSLQPEDFATYYCQQWSGYPYTFGQGTKVEIK | 34.6 | 0.00591 | 171000
15 | anti-IL-6 antibody, heavy chain S35Q, G66D / light chain M32L, M50D, N52S, M88Q (antibody, IgG1, V domains shown, Full IgG1 (Expi293); VL = variant III) VH: EVQLVESGGGLVQPGGSLRLSCAASGFTFSPFAMQWVRQAPGKGLEWVAKISPGGSWTYYSDTVTDRFTFSLDTSKSTAYLQMNSLRAEDTAVYYCARQLWGYYALDIWGQGTLVTVSS VL: DIQLTQSPSSLSASVGDRVTITCSASISVSYLYWYQQKPGKAPKLLIYDDSSLASGVPSRFSGSGSGTDFTLTISSLQPEDFATYYCQQWSGYPYTFGQGTKVEIK | 0.3 | 0.000626 | 2.09e+06
16 | anti-IL-6 antibody, heavy chain S35Y, G66D / light chain M32L, M50D, N52S, M88Q (antibody, IgG1, V domains shown, Full IgG1 (Expi293); VL = variant III) VH: EVQLVESGGGLVQPGGSLRLSCAASGFTFSPFAMYWVRQAPGKGLEWVAKISPGGSWTYYSDTVTDRFTFSLDTSKSTAYLQMNSLRAEDTAVYYCARQLWGYYALDIWGQGTLVTVSS VL: DIQLTQSPSSLSASVGDRVTITCSASISVSYLYWYQQKPGKAPKLLIYDDSSLASGVPSRFSGSGSGTDFTLTISSLQPEDFATYYCQQWSGYPYTFGQGTKVEIK | 3.43 | 0.00404 | 1.18e+06
17 | anti-IL-6 antibody, heavy chain T63G, G66D / light chain M32L, M50D, N52S, M88Q (antibody, IgG1, V domains shown, Full IgG1 (Expi293); VL = variant III) VH: EVQLVESGGGLVQPGGSLRLSCAASGFTFSPFAMSWVRQAPGKGLEWVAKISPGGSWTYYSDGVTDRFTFSLDTSKSTAYLQMNSLRAEDTAVYYCARQLWGYYALDIWGQGTLVTVSS VL: DIQLTQSPSSLSASVGDRVTITCSASISVSYLYWYQQKPGKAPKLLIYDDSSLASGVPSRFSGSGSGTDFTLTISSLQPEDFATYYCQQWSGYPYTFGQGTKVEIK | 0.261 | 0.00045 | 1.73e+06
18 | anti-IL-6 antibody, heavy chain S35P, G66D / light chain M32L, M50D, N52S, M88Q (antibody, IgG1, V domains shown, Full IgG1 (Expi293); VL = variant III) VH: EVQLVESGGGLVQPGGSLRLSCAASGFTFSPFAMPWVRQAPGKGLEWVAKISPGGSWTYYSDTVTDRFTFSLDTSKSTAYLQMNSLRAEDTAVYYCARQLWGYYALDIWGQGTLVTVSS VL: DIQLTQSPSSLSASVGDRVTITCSASISVSYLYWYQQKPGKAPKLLIYDDSSLASGVPSRFSGSGSGTDFTLTISSLQPEDFATYYCQQWSGYPYTFGQGTKVEIK | 27.1 | 0.00548 | 202000
